Data as given in IntAct's records for PubMed 21642953.

Experiments:
dcc_human DCC = dcc_human DCC (UniProt P43146)
tbb2b_human TUBB2B = tbb2b_human TUBB2B (UniProt Q9BVA1)
Sequence of tbb2b_human TUBB2B (Q9BVA1 whole entry): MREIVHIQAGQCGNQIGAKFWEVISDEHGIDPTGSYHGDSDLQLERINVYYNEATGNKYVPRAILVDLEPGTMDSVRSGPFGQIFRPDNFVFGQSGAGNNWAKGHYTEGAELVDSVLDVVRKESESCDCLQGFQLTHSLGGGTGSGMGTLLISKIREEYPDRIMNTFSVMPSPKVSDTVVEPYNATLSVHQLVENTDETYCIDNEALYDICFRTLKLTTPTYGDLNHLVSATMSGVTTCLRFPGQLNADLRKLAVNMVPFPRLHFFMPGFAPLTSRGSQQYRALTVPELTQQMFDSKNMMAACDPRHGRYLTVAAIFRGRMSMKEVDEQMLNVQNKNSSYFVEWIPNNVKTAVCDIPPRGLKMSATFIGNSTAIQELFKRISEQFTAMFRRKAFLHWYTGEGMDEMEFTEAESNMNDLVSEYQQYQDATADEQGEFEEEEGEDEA

Sequence of dcc_human DCC (P43146 whole entry): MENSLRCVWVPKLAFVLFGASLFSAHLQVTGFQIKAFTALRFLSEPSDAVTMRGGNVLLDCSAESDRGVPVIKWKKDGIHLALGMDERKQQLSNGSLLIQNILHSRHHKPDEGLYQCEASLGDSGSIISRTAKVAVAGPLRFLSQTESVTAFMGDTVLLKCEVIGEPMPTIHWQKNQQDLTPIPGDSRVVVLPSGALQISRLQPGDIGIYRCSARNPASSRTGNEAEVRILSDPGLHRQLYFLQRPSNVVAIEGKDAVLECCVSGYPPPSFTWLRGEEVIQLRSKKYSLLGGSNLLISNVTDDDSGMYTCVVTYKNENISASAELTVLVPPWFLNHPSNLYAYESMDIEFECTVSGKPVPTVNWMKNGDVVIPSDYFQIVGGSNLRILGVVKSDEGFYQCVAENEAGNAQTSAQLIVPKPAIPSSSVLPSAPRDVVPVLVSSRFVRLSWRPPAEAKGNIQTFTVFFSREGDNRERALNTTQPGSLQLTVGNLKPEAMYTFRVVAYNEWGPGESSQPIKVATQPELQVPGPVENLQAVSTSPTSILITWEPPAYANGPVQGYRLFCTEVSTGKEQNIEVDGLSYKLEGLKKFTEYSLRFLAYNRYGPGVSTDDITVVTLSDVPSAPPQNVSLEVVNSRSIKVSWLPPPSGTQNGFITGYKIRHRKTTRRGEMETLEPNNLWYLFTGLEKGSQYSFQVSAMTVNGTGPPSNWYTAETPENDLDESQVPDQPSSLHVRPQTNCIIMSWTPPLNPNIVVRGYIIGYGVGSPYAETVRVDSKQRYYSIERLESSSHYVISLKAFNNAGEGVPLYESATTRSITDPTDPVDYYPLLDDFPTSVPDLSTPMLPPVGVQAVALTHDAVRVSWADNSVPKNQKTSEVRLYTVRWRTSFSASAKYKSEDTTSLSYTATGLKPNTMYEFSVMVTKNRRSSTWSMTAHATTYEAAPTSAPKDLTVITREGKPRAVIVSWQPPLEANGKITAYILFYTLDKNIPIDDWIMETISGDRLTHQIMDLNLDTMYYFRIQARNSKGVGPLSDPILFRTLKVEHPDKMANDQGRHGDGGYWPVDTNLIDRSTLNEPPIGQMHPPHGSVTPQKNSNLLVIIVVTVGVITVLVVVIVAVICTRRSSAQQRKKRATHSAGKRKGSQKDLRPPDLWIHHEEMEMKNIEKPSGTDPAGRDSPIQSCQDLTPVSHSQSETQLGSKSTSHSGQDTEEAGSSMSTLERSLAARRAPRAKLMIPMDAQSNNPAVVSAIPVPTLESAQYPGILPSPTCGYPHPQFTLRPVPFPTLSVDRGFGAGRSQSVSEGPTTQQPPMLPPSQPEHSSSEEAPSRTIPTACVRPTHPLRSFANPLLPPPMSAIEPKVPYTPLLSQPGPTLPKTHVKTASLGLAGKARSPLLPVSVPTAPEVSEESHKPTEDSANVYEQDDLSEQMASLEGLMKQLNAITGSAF

Row | Substance | effect of a mutation on the interaction (dcc_human DCC) | effect of a mutation on the interaction (tbb2b_human TUBB2B)
1 | Unconventional myosin-X (Homo sapiens), Q9HD67 F2002K | disrupting interaction | –
2 | Unconventional myosin-X (Homo sapiens), Q9HD67 K1647D | – | disrupting interaction
3 | Unconventional myosin-X (Homo sapiens), Q9HD67 K1650D | – | disrupting interaction
